Experimental data as given in publication PMC3111191, “Molecular Evolution of Multiple Arylalkylamine N-Acetyltransferase (AANAT) in Fish” (Marine Drugs, 2011).
Numbering of substitutions follows the chain as printed. Numbers in names are those of the source.

B1: AANAT2 (Sparus aurata) (protein)
chain: MTQQVSGSPFFKPFFLKTPVSLLRQRRHTLPASEFRNLTPQDAISVFEIEREAFVSVSGECPLTLDEVLNFLGQCPELSLGWFEEGQLVAFIIGSGWGKERLSQEAMTQHVPDSPAVHIHVLSVHRHCRQQGKGSILLWRFLQYLRCIPGLRRALLICEEYLVPFYQKAGFKEKGPSAISISNMQFQEMEYTIGGQAYTRRNSGC
B2: AANAT2 (Sparus aurata; I157M) (protein)
chain: B1 chain with I157M
B3: AANAT2 (Sparus aurata; S123A) (protein)
chain: B1 chain with S123A
B4: AANAT2 (Sparus aurata; G73T/L69R/N70H/Q74L) (protein)
chain: B1 chain with L69R, N70H, G73T, Q74L

The proteins below were run on NCCc1c[nH]c2ccc(O)cc12 (assay: colorimetric assay of CoASH release, non-linear regression). Conditions: near-saturating AcCoA; apparent Km.
Type: biochemical, Sparus aurata

Row | Protein | Km
1 | B1 | 2200 µM
2 | B2 | 940 µM
3 | B3 | 650 µM
4 | B4 | 880 µM

What follows are proteins tested on NCCc1c[nH]c2ccccc12 in the same assay as above. Conditions: near-saturating AcCoA; apparent Km.
Type: biochemical, Sparus aurata

Row | Protein | Km
5 | B1 | 2000 µM
6 | B2 | 900 µM
7 | B3 | 650 µM
8 | B4 | 1200 µM
